These results are taken from the RNAGym collection of RNA variant scans (doi:10.1073/pnas.2313332121).

The labels stand for the following.
B1: TPR t1 (parent)
chain: GACCAAUCUGCCCUCAGAGCUCGAGAACAUCUUCGGAUGCAGAGGAGGCAGGCUUCGGUGGCGCGAUAGCGCCAACGUCCUCAACCUCCAAUGCAUCCCACCACAUGAUGAUGCCUGAAGAGCCUUGGUUUUUUG

Variants of B1 are the subject of this data set. As to the kind of experiment: polymerase ribozyme fitness, log enrichment relative to wild type (log ratio); higher = more active; in vitro selection for triplet polymerase activity. In short, it runs like this: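 For each subunit of a heterodimeric triplet polymerase ribozyme, a mutant library was built by PCR and transcribed, then taken through a single in vitro selection round in triplicate. Selection involved annealing to a biotinylated primer, the partner subunit and triplets, incubation frozen at −7 °C, gel excision of extended constructs, capture on streptavidin beads and RT-PCR. Genotypes were retained after Illumina sequencing of inputs and outputs only with ≥10 input reads and ≥1 read in each output. Fitness is defined as the logarithm of a genotype's enrichment relative to wild-type enrichment, using inverse-variance-weighted averages across replicates, with the logarithm taken to base 2.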
Take C73G G117A: the “polymerase ribozyme fitness (log ratio)” value was -0.876.
The same measure for C72U A121C U131C: 0.346; for C3U G48A C97A: -5.8.
The same measure for G10C G60U C82A U96A G107U A119U: -6.51; for C20A A46C A74G G93C A118G: -5.42.
The same measure for G61C G110C: -5.94.
G45U: the “polymerase ribozyme fitness (log ratio)” value was -1.31.
As to U9G C11G, the “polymerase ribozyme fitness (log ratio)” value is -4.02.
For G48A A68G, the “polymerase ribozyme fitness (log ratio)” value is -2.51.
For the variant G17C G60A, the “polymerase ribozyme fitness (log ratio)” value was -4.31.
The same measure for C3U C8A G57U G77U C79U A83C C89U C101G: -3.64; for C20U C85U: -2.85.
As to G45C C70U, the “polymerase ribozyme fitness (log ratio)” value was -1.4.
The same measure for C53G C101A A121U U126G: -0.329; for G69C U131A: -2.41; for C3U A66U: -1.8.
The same measure for A2G C56G C89G A90C: -2.84; for C15U U21A A100C U109C G117U U130A: -6.66.
The same measure for C64U C86A G135U: -2.35; for C72U C79A: -3.07; for U14A A121U: 1.98.
Turning to C11A C85A C114A C123U, the “polymerase ribozyme fitness (log ratio)” value is -2.71.
The same measure for A50G C70U: -0.709; for A111G A121C: 0.741.
C8U C15A A118U A121C: the “polymerase ribozyme fitness (log ratio)” value was determined as 0.853.
The same measure for U38G G47C C62U C85A: -5.9; for C88A U96C G110C U132C: -4.37.
The same measure for C13U C34A C64U A84C G113U: -4.89; for A41C G44A G58C G93C: -1.87.
The same measure for C102G G120U: -6.6; for U7A U130A: -0.147.
As for C49A C70A C73U U87A, the “polymerase ribozyme fitness (log ratio)” value was -3.37.
The same measure for U9A G17U C62A C88U A91G U132A: -4.47; for G42C G71U G117C: -4.87; for C53G U112G C114A G135U: -5.63.
The same measure for G23C G110C: -7.42; for G17A G23A C64A C102G U109A: -6.59.
The same measure for A91C U112A: -0.47.
For the variant C53U G61A A74U G127C, the “polymerase ribozyme fitness (log ratio)” value is -1.43.
As to G10A A29U A41C C73U A74U G113U, the “polymerase ribozyme fitness (log ratio)” value is -3.95.
In the case of G47U C70G, the “polymerase ribozyme fitness (log ratio)” value was -6.87.
The same measure for G69C G71U: -4.82; for C101A C115G: -2.5.
As for U9G A43U G52U C72A C82A, the “polymerase ribozyme fitness (log ratio)” value was -2.31.
The same measure for A37C U116G: -2.29; for G61U G120U: 1.51; for C22A G60A: -4.26.
Turning to C8A G52C U81A, the “polymerase ribozyme fitness (log ratio)” value is -2.06.
The same measure for G65A U106G: -6.66; for C8A C12G G23U G71U C86U G120C: -5.74.
In the case of C70U C94G A95G, the “polymerase ribozyme fitness (log ratio)” value was -1.78.
Consider C3U G17U C72U, for which the “polymerase ribozyme fitness (log ratio)” value is -2.73.
With A29G G60C U106A U109C G117A G127A, the “polymerase ribozyme fitness (log ratio)” value is -5.43.
The same measure for G17U A83U C123G: -1.3; for C11A C49A U59A A68G A91G: -6.83.
For the variant U9A G36U G63U, the “polymerase ribozyme fitness (log ratio)” value is -1.27.
The same measure for C56A A111U: -3.34; for C49U U55G G63A: -1.98; for C34U C85U: -4.13.
The same measure for A37U C49G G77U G120C: 0.00604; for C40U G52C G93A: -1.38.
The same measure for C49U U78G U96A G113A C115A: -5.23; for G47C U116C: -2.31; for C64G U87A C124A: -5.74.
On to A105U G127C, for which the “polymerase ribozyme fitness (log ratio)” value is -2.7.
G48C U55C A95C C98U: the “polymerase ribozyme fitness (log ratio)” value is -3.28.
The same measure for G17U G45A G60C: -2.05; for A16U G47U G52A: -4.24.
The same measure for U7G C70A U87A A121G: 1.36.
The same measure for C3U G47A C49G G69A: -4.22.
Turning to A18C U78C, the “polymerase ribozyme fitness (log ratio)” value is -1.87.
The same measure for C56U A84G A95C G127U: -2.62; for C13U A26G G60A G93C: -4.31; for G57A C79U C102G G107U C115G C124U U129G: -5.93.
The same measure for A5G C56A G69A C86A: -3.95.
The same measure for G63U U78C C94A: -3.61; for G10C C34A C124A: -3.03; for C12U C53G G61C: 0.0604.
C56U C72U U116C G117U G120U: the “polymerase ribozyme fitness (log ratio)” value was -3.95.
The same measure for U7C C12A C15A C20G G69U C80U C104A C114A G127C: -6.96.
The same measure for C13U C76U C86G: -2.13; for A43U C76A C85G G120A U130C: -1.34; for C4G A91C G120U: -1.84.
The same measure for G44U G61U: -0.394; for C12A C62G: -0.737.
Regarding A6U C49A C62U C70G C104A U125A, the “polymerase ribozyme fitness (log ratio)” value was -7.09.
In the case of U87G U106A A108C, the “polymerase ribozyme fitness (log ratio)” value was -2.16.
The same measure for C34A G120A C124G U133A: 0.189; for G17U A43U A119U: -5.06; for A83C C94U G128A: -2.4.
The same measure for G10A G42U C72A C76G C115A: -3.07.
The same measure for U21C U54A G93A A111C: -0.948; for G42A G63C C86A: -3.7.
For the variant U9A C34G C76G C85G, the “polymerase ribozyme fitness (log ratio)” value is -6.38.
The same measure for C12A U92G G128A: -5.4.
The same measure for C11G G17A C72A: -4.27; for C15A G69C C94U U126A: -5.2.
The same measure for G51A G57U: -1.5; for U9C G44U G63A C89G U109A: -7.22.
As to U9G C85U C97A C115G, the “polymerase ribozyme fitness (log ratio)” value was -4.92.
The same measure for U126G U129A: -2.97; for C99U G110A: -5.27; for G69U C104A U116A C124U: -0.357.
The same measure for U9A A46U U59C U78A C89G U109A: -7.76.
With U9G G61A A66U C82A, the “polymerase ribozyme fitness (log ratio)” value was -1.09.
The same measure for C62U U78C A100U: -0.796.
The same measure for C53U G117C: -3.1.
The same measure for G52A C62A U87A: -3.07; for C3U G44C A46U G110A: -2.98; for A24G G48U G110A U132A: -3.72.
In the case of C12U C80U G110A U130C, the “polymerase ribozyme fitness (log ratio)” value was -0.275.
The same measure for G61U C123A: 0.578; for U7C G77C: -0.0984; for A6U A37G C56U: 0.28.
The same measure for U9A C114U: -0.999; for G61U G77A: -0.736; for C11A G63C U81G: -5.33.
The same measure for C12U A37C G113A C123G: 0.27; for A41G C56U C72A G113A G128U: -5.53.
Turning to C49A A91G G93U G117U G135A, the “polymerase ribozyme fitness (log ratio)” value was -6.28.
The same measure for G61A C80G U109A G113U U133G: -5.53; for C4G A41U: -2.07.
The same measure for C12G G45U C101U A118U: -0.398; for C49G G122U C124G: -1.12.
As for G42C A84U, the “polymerase ribozyme fitness (log ratio)” value was -1.87.
Turning to C13U C70U, the “polymerase ribozyme fitness (log ratio)” value was -0.262.
Consider U21G G61C, for which the “polymerase ribozyme fitness (log ratio)” value was -3.98.
The same measure for C3U C11U A50U C64U U81G C102U G128A: -3.47; for A111U U132A: -2.14; for A50U C56A A66U G69U C80G C104G C115G C123U U130C: -8.27.
The same measure for A26G A83C A90G A121C: -0.49; for A66C C124U: 0.285.
In the case of G42A G48A G69C, the “polymerase ribozyme fitness (log ratio)” value is -4.05.
The same measure for C20A G57C C62U G120C: -2.1; for C8G C12A G39A C85U U112A G113C: -1.36; for C12U C20U U21A G25U A43U C56A C115A A121U U130A: -8.29.
The same measure for A27U C79G: -4.46; for G17A G63U: -3.9.
The same measure for C3U C28U A41G A43U A46C U92C C94U C124U: -4.65; for C72A C101U C124A G135A: 2.37.
For the variant A6U U38G C73U U125A, the “polymerase ribozyme fitness (log ratio)” value is -1.49.
The same measure for C70G U112G: -2.86; for C4U U32A C89A U106C G110A: -5.64.
Consider C82G C98G U109A C123G, for which the “polymerase ribozyme fitness (log ratio)” value is -7.59.
The same measure for G60A A105G G120U U133G G135U: -3.99; for G44A A95C C123G U132A: -1.17.
The same measure for C4G C101U: -2.36; for A95U U116G: -2; for C4G A6U A27U A111U: -4.8.
The same measure for G36A U78A C82G U125G: -2.73; for A29G C97A U112C: -4.92.
Take C62G G117A: the “polymerase ribozyme fitness (log ratio)” value was -2.78.
The same measure for G120A C123G: 1.22; for C49G G58C C79A: -5.19; for C12U A18U C114A G128A U130A: -3.
The same measure for A2G G61A C102U U109A: -5.41.
A41U G57C: the “polymerase ribozyme fitness (log ratio)” value was -1.91.
For the variant G48C G60U A74U C115U, the “polymerase ribozyme fitness (log ratio)” value was -2.52.
The same measure for C8A G17A C73A: -2.25.
The same measure for C70U: -0.414.
The same measure for C40U C49A C79U G113U U125C: -4.03; for C3U A27G: -2.38.
In the case of C15A A29U, the “polymerase ribozyme fitness (log ratio)” value is -4.28.
Take G42U C76U A84U C88U: the “polymerase ribozyme fitness (log ratio)” value is -2.62.
The same measure for A41G U55A C56U C72G A118U: -0.698; for C8A A90U: -0.513; for C20A U106C: -2.55.
